Target: T1, GST-HrcA fusion protein (C. jejuni NCTC11168 HrcA repressor fused to glutathione S-transferase) (C. jejuni NCTC 11168, UniProt Q9PPG2 1-264)
T1 construct: HrcA heat-shock transcriptional repressor of Campylobacter jejuni NCTC 11168; also called heat-shock repressor HrcA
T1 sequence (looked up): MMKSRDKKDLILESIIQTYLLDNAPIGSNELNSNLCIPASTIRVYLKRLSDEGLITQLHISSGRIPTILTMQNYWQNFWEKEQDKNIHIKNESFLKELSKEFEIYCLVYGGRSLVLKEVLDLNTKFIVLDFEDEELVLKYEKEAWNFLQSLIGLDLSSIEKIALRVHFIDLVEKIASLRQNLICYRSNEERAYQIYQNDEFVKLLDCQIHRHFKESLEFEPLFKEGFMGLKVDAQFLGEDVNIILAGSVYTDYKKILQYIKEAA
Test: pull-down; GST-HrcA on glutathione-agarose as bait, incubated 16 h at 4 °C with pre-cleared C. jejuni NCTC11168 cytoplasmic extract in Res buffer (10 mM Tris-HCl pH 7.5, 100 mM NaCl, 20 mM KCl, 1 mM EDTA, 0.01% NP-40); GroEL detected by anti-GroEL immunoblot; GST alone as control bait
Conditions: one partner purified

B1: GroEL chaperonin of C. jejuni (natural protein, UniProt O69289 1-545, looked up)
chain: MAKEIIFSDEARNKLYEGVKKLNDAVKVTMGPRGRNVLIQKSFGAPSITKDGVSVAKEVELKDSLENMGASLVREVASKTADQAGDGTTTATVLAHAIFKEGLRNITAGANPIEVKRGMDKACEAIVAELKKLSREVKDKKEIAQVATISANSDEKIGNLIADAMEKVGKDGVITVEEAKSINDELNVVEGMQFDRGYLSPYFITNAEKMTVELSSPYILLFDKKITNLKDLLPVLEQIQKTGKPLLIIAEDIEGEALATLVVNKLRGVLNISAVKAPGFGDRRKAMLEDIAILTGGEVISEELGRTLESATIQDLGQASSVIIDKDNTTIVNGAGEKANIDARVNQIKAQIAETTSDYDREKLQERLAKLSGGVAVIKVGAATETEMKEKKDRVDDALSATKAAVEEGIVIGGGAALIKAKAKIKLDLQGDEAIGAAIVERALRAPLRQIAENAGFDAGVVVNSVENAKDENTGFDAAKGEYVNMLESGIIDPVKVERVALLNAVSVASMLLTTEATISEIKEDKPTMPDMSGMGGMGGMGGMM
notes: GroEL (60 kDa chaperonin) of Campylobacter jejuni NCTC 11168, endogenous protein detected by anti-GroEL immunoblot; Only GroEL was detected in the pull-down; also called GroE chaperonin; source: endogenous, cytoplasmic protein extract of C. jejuni NCTC11168 wild type
Q: With B1 as the binder, how does the “fold intensity of the GroEL band against the GST control pull-down” value read?
A: The value was 6.2 fold.

Source: paper PMC8533110, “Feeling the Heat: The Campylobacter jejuni HrcA Transcriptional Repressor Is an Intrinsic Protein Thermosensor” (Biomolecules, 2021)
